{"source": "paper PMC7857026", "about": "“NbWRKY40 Positively Regulates the Response of Nicotiana benthamiana to Tomato Mosaic Virus via Salicylic Acid Signaling”", "binders": {"B1": {"name": "NbICS1 promoter W-box fragment (84 bp) (dsDNA)", "DNA 1": "TAGTACAGAATATGAAGAAAGCTTTGCATATGGTGTTTATTGACCTAGAGAAAGTGTACATCAAGGTCCCTAGGGATGTCCTTT", "DNA 2": "AAAGGACATCCCTAGGGACCTTGATGTACACTTTCTCTAGGTCAATAAACACCATATGCAAAGCTTTCTTCATATTCTGTACTA"}}, "biological_target": "NbWRKY40 (GST fusion implied by GST control) (Nicotiana benthamiana, UniProt A0A7T1TE48 1-255)", "sequence (A0A7T1TE48 entry or part of it)": "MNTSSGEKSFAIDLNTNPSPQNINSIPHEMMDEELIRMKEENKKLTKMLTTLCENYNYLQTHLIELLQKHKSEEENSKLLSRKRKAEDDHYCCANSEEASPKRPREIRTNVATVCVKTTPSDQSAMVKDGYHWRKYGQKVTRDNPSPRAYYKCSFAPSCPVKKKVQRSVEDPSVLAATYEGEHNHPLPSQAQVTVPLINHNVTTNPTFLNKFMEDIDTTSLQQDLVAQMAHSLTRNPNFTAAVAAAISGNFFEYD", "experiment": "EMSA; LightShift Chemiluminescent EMSA Kit (Thermo Scientific), manufacturer's instructions; buffer, salt, pH and temperature not stated", "conditions": "protein: recombinant; label: biotin (end label); blunt", "data": [{"binder": "B1", "values": [{"measurement": "binding result", "result": "binds"}]}]}
